In US20200397816A1, “METHODS TO TREAT INFLAMMATORY AND SMOOTH MUSCLE CELL PROLIFERATION DISORDERS” (THE TRUSTEES OF INDIANA UNIVERSITY, priority 2019, published 2020):
“Also recorded” adds a separate entry of the source.

Experiments:
Il6 = Il6 transcripts qRT-PCR in hPASMC; format: cell-based, human; conditions: SMCs, EMAP II time course
Protocol: (§1) RAW 264.7 (ATCC) mouse macrophages and Human Embryonic Kidney (HEK) 293T cells were cultured in DMEM media with 10% fetal bovine serum […] and glutamine HEPES buffer and beta-mercaptoethanol were added to the growth medium used for RAW 264.7 macrophages. […]
(§2) Total RNA was extracted with TriZol using standard RNA extraction protocol and reverse transcribed with SuperScript III Reverse Transcriptase (Thermo Fischer Scientific). SphK1, Tnf, Il6, EGR1, Gapdh, Hprt1 transcripts were quantified using PrimePCR SYBR Green assays from BioRad. […]
(§3) Total RNA was extracted with TriZol using standard RNA extraction protocol and reverse transcribed with SuperScript III Reverse Transcriptase (Thermo Fisher Scientific). SPHK1, Tnf, Il6, EGR1, Gapdh, Hprt1 transcripts were quantified using PrimePCR SYBR Green assays from BioRad.

S1P [1] = test: S1P, sphingosine and ceramides by HPLC/MS/MS in RAW 264.7 macrophages; format: cell-based, mouse; conditions: EMAP II 0-24 hours
Protocol: (§4) RAW 264.7 (ATCC) mouse macrophages and Human Embryonic Kidney (HEK) 293T cells were cultured in DMEM media with 10% fetal bovine serum […] and glutamine HEPES buffer and beta-mercaptoethanol were added to the growth medium used for RAW 264.7 macrophages. Primary human pulmonary artery smooth muscle cells (hPASMC) purchased from Lonza (Walkersville, Md.) were cultured in complete growth medium containing smooth muscle growth media-2 (SmGM-2) with 10% FBS and growth factors provided as a kit by the supplier (Lonza, (Walkersville, Md.). THP-1 human monocyte cells were cultured in RPMI 1640 with 10% FBS and glutamine Cells were cultured in a humidified atmosphere with 5% CO2 at 370 C. For all studies passages 5-14 were used for RAW 264.7 and passages 5-10 were used for hPASMCs. For treatment studies, subconfluent cells plated in multi-well plates were serum starved and if required, pretreated for with inhibitors before stimulating with 2 μg/mL recombinant EMAP II.
Collected cells were rinsed with PBS, pelleted and frozen at minus 80° Celsius. […] Sphingolipids are normalized to inorganic phosphate levels determined from the Bligh & Dyer lipid extraction method. […]
Collected cells were rinsed with PBS, pelleted. […] Sphingolipids were normalized to inorganic phosphate levels in PASMC which was determined from the Bligh & Dyer lipid extraction method. […]

SphK1 = SphK1 transcripts qRT-PCR in hPASMC; format: cell-based, human; conditions: SMCs
Protocol: as §1, §2, §3

S1P [2] = test: ELISA for S1P quantification in hPASMC; format: cell-based, human; conditions: SMCs; peaks at 1 hour and 6 hour; normalized against protein
Protocol: Equal number of hPASMC cells (1,000,000) were plated and serum starved for overnight. Cells were stimulated for in a series of time points and collected the cells. Cells were pelleted out and washed with PBS. After the lysis protein concentration was measured. S1P levels were measured using S1P ELISA kit (MyBioSource, MBS069092) following manufacturer's instructions. S1P levels were normalized against protein levels.

EGR1 = EGR1 protein western blot and immunofluorescence in hPASMC; format: cell-based, human; conditions: SMCs
Protocol: as §4
After appropriate treatments, protein lysates were prepared by using RIPA buffer supplemented with phosphatase and protease inhibitors (Thermo Fischer Scientific). Alpha-tubulin was used as a loading control. For nuclear and cytoplasmic fractionation, NE-PER kit from Thermo Fischer Scientific was used. Western blots were performed according to standard methods and quantified using densitometry using Image Studio Lite software from LI-COR Biosciences.
Primary hPASMCs cells or human THP-1 macrophages were seeded in Nunc Lab-Tek™ II 4-well imaging plates (Thermo Fisher Scientific) chamber well slides and cultured in growth medium. After the serum starvation cells were stimulated with EMAP II. Treated cells were rinsed with PBS and fixed with 4% paraformaldehyde at room temperature for 15 min and permeabilized with 0.1% Triton X-100 at room temperature for 10 min After washing with PBS three times, the cells were incubated with EGR1, 1amin, or pSphK1 antibody at 40C overnight. The cells were then rinsed with PBS three times and subsequently incubated with respective secondary antibody conjugated with Alex Fluor 647 and 488 or Phalloidin 488 at room temperature for 1 h. The cells were rinsed with PBS three times and coverslips were mounted with SlowFade Gold Antifade Mountant with DAPI (Thermo Fischer Scientific) and the cells were examined under Olympus microscope with 40× for EGR1 expression and with 60× for pSphK1 water immersion.
Knockdown of endogenous EGR1 was carried out by transfecting with 25 nM final concentration of ON-TARGETplus siRNAs specific for EGR1 or non-targeting control purchased from GE Dharmacon (Lafayette,CO) using Viromer Blue (Lipocalyx) per manufacturer's instructions. Cells were stimulated with EMAP II 48 h post-transfection.
RAW 264.7 (ATCC) mouse macrophages and HEK-293T (ATCC) cells were cultured in DMEM media with 10% (v/v) fetal bovine serum (FBS) and 2 mM glutamine HEPES buffer and beta-mercaptoethanol were added to the growth medium used for RAW 264.7 macrophages. […]

B1: EMAP II: 6x-His tagged recombinant EMAP II, cleaved C-terminal peptide of AIMP1 (SEQ ID NO: 2), pro-inflammatory cytokine (protein)
chain: IAGSADSKPIDVSRLDLRIGCIITARKHPDADSLYVEEVDVGEIAPRTVVSGLVNHVPLEQMQNRMVILLCNLKPAKMRGVLSQAMVMCASSPEKIEILAPPNGSVPGDRITFDAFPGEPDKELNPKKKIWEQIQPDLHTNDECVATYKGVPFEVKGKGVCRAQTMSNSGIK
- Il6 transcription (Il6): increased transcription
- cellular sphingosine and ceramide levels (S1P [1]): bi-modal depreciation; also recorded: decreasing levels over time
- cellular S1P levels (S1P [1]; normalized against inorganic phosphates): continuous elevation
- time of peak SphK1 transcription after EMAP II stimulation (SphK1): 3 h
- intracellular S1P levels (ELISA) (S1P [2]): significant bimodal pattern
- EGR1 expression in whole cell lysates (EGR1; 1 to 2 hours following EMAP II): significant upregulation
- upregulation of nuclear EGR1 expression (EGR1; EMAP II 2 μg/mL, at 1 hour): 2.5 fold
- nuclear EGR1 expression by immunofluorescence vs control (EGR1; EMAP II 1 hour): significantly elevated
